Measurements: publication PMC11669160, “Engineering an αCD206-synNotch Receptor: Insights into the Development of Novel Synthetic Receptors” (ACS Synthetic Biology, 2024)

Target: T1, mouse CD206 extracellular domain fused to a myc tag and the PDGFRβ transmembrane domain, displayed on MetBo2 … (Mus musculus (cDNA of IL-4 treated …))
T1 construct: transmembrane domain of the human platelet-derived growth factor receptor (PDGFRβ); the methods name only myc; also called CD206 ECD; CD206 ECD construct; source: MetBo2 cells, transiently transfected (CMV promoter), on cells
T1 chain: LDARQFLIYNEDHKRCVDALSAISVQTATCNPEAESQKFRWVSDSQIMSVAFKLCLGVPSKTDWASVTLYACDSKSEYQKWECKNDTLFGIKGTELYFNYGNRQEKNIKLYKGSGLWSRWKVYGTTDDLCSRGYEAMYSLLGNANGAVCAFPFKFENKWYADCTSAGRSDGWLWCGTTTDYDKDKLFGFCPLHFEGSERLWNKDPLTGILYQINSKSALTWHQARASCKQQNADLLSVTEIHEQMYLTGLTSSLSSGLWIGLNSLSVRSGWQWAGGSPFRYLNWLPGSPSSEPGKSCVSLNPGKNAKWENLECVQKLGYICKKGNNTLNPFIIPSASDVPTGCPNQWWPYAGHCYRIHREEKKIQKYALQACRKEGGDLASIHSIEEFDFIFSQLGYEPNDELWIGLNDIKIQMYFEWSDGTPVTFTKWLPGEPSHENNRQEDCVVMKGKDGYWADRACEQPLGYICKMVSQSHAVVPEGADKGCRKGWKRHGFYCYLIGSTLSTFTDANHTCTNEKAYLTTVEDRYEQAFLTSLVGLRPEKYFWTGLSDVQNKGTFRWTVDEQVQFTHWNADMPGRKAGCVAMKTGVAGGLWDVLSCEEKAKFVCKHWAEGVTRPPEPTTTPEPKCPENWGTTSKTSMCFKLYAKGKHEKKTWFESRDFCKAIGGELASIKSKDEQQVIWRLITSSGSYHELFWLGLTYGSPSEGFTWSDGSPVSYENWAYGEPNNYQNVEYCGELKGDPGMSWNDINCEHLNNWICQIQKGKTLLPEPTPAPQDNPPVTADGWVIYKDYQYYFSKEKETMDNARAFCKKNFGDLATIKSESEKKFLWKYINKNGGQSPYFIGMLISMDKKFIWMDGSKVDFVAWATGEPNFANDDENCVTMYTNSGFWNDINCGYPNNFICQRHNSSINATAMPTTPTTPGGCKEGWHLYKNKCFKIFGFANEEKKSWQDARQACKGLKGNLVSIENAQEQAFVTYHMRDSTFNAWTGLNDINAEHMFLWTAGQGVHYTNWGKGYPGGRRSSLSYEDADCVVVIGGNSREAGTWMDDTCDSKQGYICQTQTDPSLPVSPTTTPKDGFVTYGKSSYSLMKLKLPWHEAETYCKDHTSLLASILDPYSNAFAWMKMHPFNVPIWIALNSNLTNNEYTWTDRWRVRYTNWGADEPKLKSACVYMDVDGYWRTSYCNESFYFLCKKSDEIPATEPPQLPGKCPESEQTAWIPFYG
Assay: immunostaining of cells or tissue; supernatant of HEK293FT cells with αCD206-mNeonGreen chromobody put on MetBo2 cells transiently expressing the CD206 ECD construct; 4 °C overnight in the dark; fluorescence microscopy (methods: fixed cells; legend: live cells)
Conditions: partners not purified

binding result: binds
B1: αCD206-mNeonGreen chromobody (αCD206 VHH fused to mNeonGreen) (VHH)
VHH: QVQLQESGGGLVQPGGSLRLSCAASGNIFSINAIGWYRQAPGKQRELVATITLSGSTNYADSVKGRFSISRDNAKNTVYLQMNSLKPEDTAVYYCNANTYSDSDVYGYWGQGTQVTVSS
notes: also called αCD206 chromobodies; αCD206 nanobody; source: HEK293FT, transiently transfected; cell-free culture supernatant used unpurified
